Experimental data reported in patent publication US20060067951A1 (GOVERNING COUNCIL OF THE UNIVERSITY OF TORONTO, published 2006).

T1: S. mutans ComD histidine kinase receptor (Streptococcus mutans)
T1 chain: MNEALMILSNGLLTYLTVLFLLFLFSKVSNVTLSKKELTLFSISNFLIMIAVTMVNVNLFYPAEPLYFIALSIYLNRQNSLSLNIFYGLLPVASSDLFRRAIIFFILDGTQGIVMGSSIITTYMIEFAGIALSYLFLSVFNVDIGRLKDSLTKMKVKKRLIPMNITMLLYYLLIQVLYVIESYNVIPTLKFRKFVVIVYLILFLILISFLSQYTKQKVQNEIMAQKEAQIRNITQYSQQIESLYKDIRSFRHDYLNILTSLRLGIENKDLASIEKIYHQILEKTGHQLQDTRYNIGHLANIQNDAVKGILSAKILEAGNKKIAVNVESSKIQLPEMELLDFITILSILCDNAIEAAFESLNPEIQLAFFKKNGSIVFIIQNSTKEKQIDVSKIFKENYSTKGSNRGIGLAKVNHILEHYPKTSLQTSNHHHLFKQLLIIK


Biological target: T1, S. mutans ComD histidine kinase receptor
Test: cell-based or functional assay

| Binder | Transformation efficiency (vs 5 µg CSP), 5 µg/ml peptide, S. mutans wild-type UA159 | Transformation efficiency (vs no CSP), 5 µg/ml peptide, S. mutans wild-type UA159 |
| --- | --- | --- |
| SGSLSTFFRLFNRSFTQALGA [CSP peptide analog G2] | 28 fold decrease | 56 fold increase |
| SGSLSTFFVLFNRSFTQALGK [CSP peptide analog B2] | 414 fold decrease | 4 fold increase |
| SGSLSTFFRLFNRSFTQAGK [CSP peptide analog G1] | 2 fold decrease | 848 fold increase |
| SGSLSTFFALFNRSFTQALGK [CSP peptide analog C2] | 48 fold decrease | 32 fold increase |
| SGSLSTFFRLFNVSFTQALGK [CSP peptide analog D2] | 16 fold decrease | 99 fold increase |
| SGSLSTFFRLFNASFTQALGK [CSP peptide analog E2] | 6 fold decrease | 252 fold increase |
| SGSLSTFFRLFNRSFTQLGK [CSP peptide analog H1] | 28000 fold decrease | 18 fold decrease |
| SGSSTFFRLFNRSFTQALGK [CSP peptide analog D1] | 6 fold decrease | 275 fold increase |
| SGSLSTFFRLFNRSFTQALGV [CSP peptide analog F2] | 3 fold decrease | 543 fold increase |
| SGSLSTFFRLFNRSFTALGK [CSP peptide analog A2] | 7 fold decrease | 125 fold increase |
| SGTLSTFFRLFNRSFTQA [CSP peptide analog B3] | 8 fold decrease | 195 fold increase |
| SGSLSTFFRLFNRSFTQALGK [mature wild-type S. mutans competence stimulating peptide (CSP)] | – | 1550 fold increase |
| SGSLSTFFRLFNRSFTQALK [CSP peptide analog F1] | 3 fold decrease | 541 fold increase |
| SGSLTFFRLFNRSFTQALGK [CSP peptide analog E1] | 2 fold decrease | 791 fold increase |
